Experimental data from the RNAGym collection of RNA variant scans (doi:10.1073/pnas.2313332121).
Fewer inactive variants are shown than the library holds.

B1: TPR 5TU (parent)
chain: GGAUCUUCUCGAUCUAACAAAAAAGACAAAUCUGCCACAAAGCUUGAGAGCAUCUUCGGAUGCAGAGGCGGCAGCCUUCGGUGGCGCGAUAGCGCCAACGUUCUCAACUAUGACACGCAAAACGCGUGCUCCGUUGAAUGGAGUUUAUCAUG

Variants of: B1
Assay: polymerase ribozyme fitness, log enrichment relative to wild type (log ratio); higher = more active; in vitro selection for triplet polymerase activity
Method in brief: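 Each subunit of a heterodimeric triplet polymerase ribozyme was represented by a PCR-built, transcribed mutant library that underwent triplicate single-round in vitro selection with frozen incubation at −7 °C. Extended constructs were recovered by gel excision, streptavidin-bead capture and RT-PCR, and Illumina sequencing of input and output libraries kept genotypes with ≥10 input reads and ≥1 read per output. Fitness is the logarithm of genotype enrichment relative to wild-type enrichment, from inverse-variance-weighted replicate averages, with a logarithm base of 2.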

Variant | polymerase ribozyme fitness (log ratio)
GGAUCUUCUCGAUCUAACAAAAAAGACAAAUCUGCCACAAAGCUUGAGAGCAUCUUCGGAUGCAGAGGCGGCAGCAUUCGGUGGCGCGAUAGCGUAGACGUUCUCAACUAUGAUACGCAAAACGCGUGCUCCGUUGCAUGGAGUUUAUCAUG [C76A C95U C96A A97G C114U A137C] | ≤ -4.2
GGAUCUUCUCGAUCUAACAAAAAAGACAAAUCUGCCACAAAGCUUGAGAGCAUCUUCGGAUGCAGAGGCGGCAGCAUUCGGUGUCGCGAUAGCGCCAACGUUCUCAACUAUGACACGCAAGGCGCGUGCUCCGUUGAAUGGAGUUAAUCAUG [C76A G84U A121G A122G U146A] | -3.68
GGAUCUUCUCGAUCUAACAAAAAAGACAAAUCUGCCACAAAGCUUGAGAGCAUCUUCGGAUGCAGAGGCGGCAGUCUUCGGUGGCGCGAUAGCGCCAACGUUCUCAACUAUGACACGCAAAACGCGUGCUCCGUUGAAUGAAGUUUAUCAUG [C75U G141A] | -0.767
GGAUCUUCUCGAUCUAACAAAAAAGACAAAUCUGCCACAAAGCUUGAGAGCAUCUUCGGAUGCAGAGGCGGCAGUCUUCGGUGGCGCGAUAGCACCAACGUUCUCAACUAUGACACGCAAAACGCGUGCUCCGUUGAAUGGCGUUUAUCAUG [C75U G94A A142C] | -2.13
GGAUCUUCUCGAUCUAACAAAAAAGACAAAUCUGCCACAAAGCUUGAGAGCAUCUUCGGAUGCAGAGGCGGCAGCAUUCGGUGGCGGGAUAGCGCCAACGUUCUCAACUAUGACACGCAAAACGCGUGCUCCGUUGAAUGGAGUUUAUCAUG [C76A C87G] | -4.07
GGAUCUUCUCGAUCUAACAAAAAAGACAAAUCUGCCACAAAGCUUGAGAGCAUCUUCGGAUGCAGAGGCGGCAGCAUUCGGUGGCGCGAUAGCGCCAACGUUCUCAACUAUGACACGCAAAACGCGAGCUCCGUUGAAUGGAGUUUAUCAUG [C76A U127A] | -3.75
GGAUCUUCUCGAUCUAACAAAAAAGACAAAUCUGCCACAAAGCUUGAGAGCAUCUUCGGAUGCAGAGGCGGCAGUCUUCGGUGACGCGAUAGCGCCAACGUUCUCAACUAUGACACGCAAAACGCGUGCUCCGUAGAAUGGAGUUUAUCAUG [C75U G84A U135A] | -0.996
GGAUCUUCUCGAUCUAACAAAAAAGACAAAUCUGCCACAAAGCUUGAGAGCAUCUUCGGAUGCAGAGGCGGCAGCAUUCGGUGGCGCGAUAGCCCCAACGUUCUCAACUAUGACACGCAAAACGCGUGCUCCGUUGAAUGGAGUUUAUCAUG [C76A G94C] | -0.703
GGAUCUUCUCGAUCUAACAAAAAAGACAAAUCUGCCACAAAGCUUGAGAGCAUCUUCGGAUGCAGAGGCGGCAGUCUUCGGUGGCGCGAUAGCGCUAACGUUCUCAACUAUGACACGCAAAACGCGUGCUCCGUUGAAUGGAGUUUAUCAUG [C75U C96U] | -0.743
GGAUCUUCUCGAUCUAACAAAAAAGACAAAUCUGCCACAAAGCUUGAGAGCAUCUUCGGAUGCAGAGGCGGCAGUCUUCGGUGGCGCGAUAGCCCCAACGUUCUCAACUAUGACACGCAAAACGCGUGCUCCGUUGAAUGGAGUUUAUCAUG [C75U G94C] | 0.488
GGAUCUUCUCGAUCUAACAAAAAAGACAAAUCUGCCACAAAGCUUGAGAGCAUCUUCGGAUGCAGAGGCGGCAGUCUUCGGUGGCGCGAUAACGCCAACGUUCUCAACUAUGACACGCAAAACGCGUGCUCCGUUGAAUGGAGUUUAUCAUG [C75U G92A] | -2.99
GGAUCUUCUCGAUCUAACAAAAAAGACAAAUCUGCCACAAAGCUUGAGAGCAUCUUCGGAUGCAGAGGCGGCAGCAUUCGGUGGCGCGAUAGCGCUAACGUUCUCAACUAUGACACGCAAAACGCGUGCUCCGUUGAAUGGAGUUUAUCAUG [C76A C96U] | -0.773
GGAUCUUCUCGAUCUAACAAAAAAGACAAAUCUGCCACAAAGCUUGAGAGCAUCUUCGGAUGCAGAGGCGGCAGUCUUCGGUGGCGCGAUAGCGCCAACGUUCUCAACUAUGACACGCAAAACGCGUGCUCCUUUGAAUGGAGUUUAUCAUG [C75U G133U] | -3.54
GGAUCUUCUCGAUCUAACAAAAAAGACAAAUCUGCCACAAAGCUUGAGAGCAUCUUCGGAUGCAGAGGCGGCAGUCUUCGGUAGCGCGAUAGCGCCACCGUUCUCAACUAUGACACGCAAAACGCGUGCUCCGAAGAAUGGAGUUUAUCAUG [C75U G83A A98C U134A U135A] | -3.58
GGAUCUUCUCGAUCUAACAAAAAAGACAAAUCUGCCACAAAGCUUGAGAGCAUCUUCGGAUGCAGAGGCGGCAGUCUUCAGUGGAGCGAUAGCGCCAACGUUCUCAACUAUGACACGCAAAACGCGUGCUCCGUUGAAUGGAGUUCAUCAUG [C75U G80A C85A U146C] | -3.11
GGAUCUUCUCGAUCUAACAAAAAAGACAAAUCUGCCACAAAGCUUGAGAGCAUCUUCGGAUGCAGAGGCGGCAGCAUUCGGUGGCGCGAUAGCGCCAACGUUCUCAACUAUGACACGCUAAACGCGUGCUCCGUUGAAUGGAGUUUAUCAUG [C76A A119U] | -0.979
GGAUCUUCUCGAUCUAACAAAAAAGACAAAUCUGCCACAAAGCUUGAGAGCAUCUUCGGAUGCAGAGGCGGCAGCAUUCGGUGGUGCGAUAGCGCCAACGUUCUCAACUAUGACACGCAAAACGCGUGCUCCGUUGAAUGGAGCUUAUCAUG [C76A C85U U144C] | -0.235
GGAUCUUCUCGAUCUAACAAAAAAGACAAAUCUGCCACAAAGCUUGAGAGCAUCUUCGGAUGCAGAGGCGGCAGUCUUCGGUAGCGCGAUAGCGCCAACGUUCUCAACUAUGACACGCAAAACGCGUGCUCCGUUGAAUGGAGUUUAUCAUG [C75U G83A] | -0.0803
GGAUCUUCUCGAUCUAACAAAAAAGACAAAUCUGCCACAAAGCUUGAGAGCAUCUUCGGAUGCAGAGGCGGCAGUCUUCGGUUGCGCGAUAGCGCCAACGUUCUCAACUAUGACACGCAAAACGCGUGCUCCGUUGAAUGGAGUUUAUCAUG [C75U G83U] | -3.08

Variant | polymerase ribozyme fitness (log ratio)
GGAUCUUCUCGAUCUAACAAAAAAGACAAAUCUGCCACAAAGCUUGAGAGCAUCUUCGGAUGCAGAGGCGGCAGCAUUCGGUGGCGUGAUAGCGCCAACGUUCUCAACUAUGACACGCAAAACGCGUGCUCCGUUGAAGGGAGAUUAUCAUG [C76A C87U U139G U144A] | -2.07
GGAUCUUCUCGAUCUAACAAAAAAGACAAAUCUGCCACAAAGCUUGAGAGCAUCUUCGGAUGCAGAGGCGGCAGCAUUCGGUGGCGCGAUACCGCCAUCGUUCUCAACUAUGACACGCAAAACGCGUGCUCCGUUGAAUGGUGUUUAUCAUG [C76A G92C A98U A142U] | -2.32
GGAUCUUCUCGAUCUAACAAAAAAGACAAAUCUGCCACAAAGCUUGAGAGCAUCUUCGGAUGCAGAGGCGGCAGCAUUCGGUGGCGCGAUAGCGCCAACGUUCUCAACUAUGACACGCAAAACGCGUGCUCCGUUGUAUGGAGUUUAUCAUG [C76A A137U] | -3.9
GGAUCUUCUCGAUCUAACAAAAAAGACAAAUCUGCCACAAAGCUUGAGAGCAUCUUCGGAUGCAGAGGCGGCAGCAUUCGGUGGCGCGAUAGCGCCUACGUUCUCAACUAUGACACGCAAAACGCGUGCUCCGUUGAAUGGAGUUUAUCAUG [C76A A97U] | -1.06
GGAUCUUCUCGAUCUAACAAAAAAGACAAAUCUGCCACAAAGCUUGAGAGCAUCUUCGGAUGCAGAGGCGGCAGCAUUCGGUGGCGCGAUGGCGCCAACGUUCUCAACUAUGACACGCAGAACGCGUGCUCCGUUGAAUGGAGUUUAUCAUG [C76A A91G A120G] | -3.67
GGAUCUUCUCGAUCUAACAAAAAAGACAAAUCUGCCACAAAGCUUGAGAGCAUCUUCGGAUGCAGAGGCGGCAGCAUUCGGUGGCGCGAUAUCGCCAACGUUCUCAACUAUGACACGCAAAACGCGUGCUCCGUUGAAUGGAGUUUAUCAUG [C76A G92U] | -2.07
GGAUCUUCUCGAUCUAACAAAAAAGACAAAUCUGCCACAAAGCUUGAGAGCAUCUUCGGAUGCAGAGGCGGCAGCAUUCGGUGGCGCGAUGGCGCCAACGUUCUCAACUAUGAUACGCAAAACGCGUGCUCCGUUGAAUGGAGUUUAUCAUG [C76A A91G C114U] | -3.98
GGAUCUUCUCGAUCUAACAAAAAAGACAAAUCUGCCACAAAGCUUGAGAGCAUCUUCGGAUGCAGAGGCGGCAGUCUUCGGUGGCGUGAUAGCGCCAACGUUCUCAACUAUGACACGCAAAACGCGUGCUCCGUUGAAUGGAGUUUAUCAUG [C75U C87U] | 0.0996
GGAUCUUCUCGAUCUAACAAAAAAGACAAAUCUGCCACAAAGCUUGAGAGCAUCUUCGGAUGCAGAGGCGGCAGCAUUCGGUGGCGCGAUAGCGCCAACGUUCUCAACUAUGACACGCAAAACGCGUGCUCCGUUGAAUGCAGUUUAUCAUG [C76A G141C] | -2.39
GGAUCUUCUCGAUCUAACAAAAAAGACAAAUCUGCCACAAAGCUUGAGAGCAUCUUCGGAUGCAGAGGCGGCAGUCUUCGGUCGCGCGAUAGCGCCAACGUUCUCAACUAUGACACGCAAAACGCGUGCUCCGUUGAUUGGGGUUUAUCAUG [C75U G83C A138U A142G] | ≤ -4.2
GGAUCUUCUCGAUCUAACAAAAAAGACAAAUCUGCCACAAAGCUUGAGAGCAUCUUCGGAUGCAGAGGCGGCAGCAUUCGGUGGCGCGAUAGCGCCAACGUUCUCAACUAUGCCACGCAAAACGCGUGCUCCGUUGAAUGCAGUUUAUCAAG [C76A A113C G141C U151A] | ≤ -4.2
GGAUCUUCUCGAUCUAACAAAAAAGACAAAUCUGCCACAAAGCUUGAGAGCAUCUUCGGAUGCAGAGGCGGCAGCAUUCGGUGGAGCGAUAGCGACAACGUUCUCAACUAUGACACGCAGAACGCGUGCUCCGUUGAAUGGAGUUUAUCAUG [C76A C85A C95A A120G] | -2.33
GGAUCUUCUCGAUCUAACAAAAAAGACAAAUCUGCCACAAAGCUUGAGAGCAUCUUCGGAUGCAGAGGCGGCAGCAUUCGGUGGCGCGAUAGCGCAAACGUUCUCAACUAUGACACGCAAACAGCGUGCUCCGUUGAAUGGAGUUUAUCAUG [C76A C96A A122C C123A] | -1.55
GGAUCUUCUCGAUCUAACAAAAAAGACAAAUCUGCCACAAAGCUUGAGAGCAUCUUCGGAUGCAGAGGCGGCAGCAUUCGGUGGCGCGAUAGCGCCAACGUUCUCAACUAUGACACGCAAAACGCGUGCUCCGUUGAAUGGCGUUUAUCAUG [C76A A142C] | -2.3
GGAUCUUCUCGAUCUAACAAAAAAGACAAAUCUGCCACAAAGCUUGAGAGCAUCUUCGGAUGCAGAGGCGGCAGCAUUCGGUGGCACGUUAGCGCCAACGUUCUCAACUAUGACACGCAAAACGCGUGCUCCCUUGAAUGGAGUGUAUCAUG [C76A G86A A89U G133C U145G] | ≤ -4.2
GGAUCUUCUCGAUCUAACAAAAAAGACAAAUCUGCCACAAAGCUUGAGAGCAUCUUCGGAUGCAGAGGCGGCAGCAUUCGGCGGCGCGACAGCCCCAACGUUCUCAACUAUGACAUGCAAAACGCGUGCUCCGUUGAAUGGAAUUUAUCAUG [C76A U82C U90C G94C C116U G143A] | ≤ -4.2
GGAUCUUCUCGAUCUAACAAAAAAGACAAAUCUGCCACAAAGCUUGAGAGCAUCUUCGGAUGCAGAGGCGGCAGCAUUCGGUGGCGUGAUAGCGCCAACGUUCUCAACUAUGACACGCAAAACGCGUGCUCCGUUGAAUCGAGUUUAUCAUG [C76A C87U G140C] | ≤ -4.2
GGAUCUUCUCGAUCUAACAAAAAAGACAAAUCUGCCACAAAGCUUGAGAGCAUCUUCGGAUGCAGAGGCGGCAGUCUUCGGUGGCGCGAUAGCGUCAACGUUCUCAACUAUGACACGCAAAACGCGUGCUCCGUUGAAUGGAGUUUAUCAUG [C75U C95U] | 0.131
GGAUCUUCUCGAUCUAACAAAAAAGACAAAUCUGCCACAAAGCUUGAGAGCAUCUUCGGAUGCAGAGGCGGCAGCAUUCGGUUGCGCGAUAGCGCCAAUGUUCUCAACUAUGACACGCAAAUCGCGUGCUCCGUUGAAUGGAGUUUAUCAUG [C76A G83U C99U A122U] | ≤ -4.2
